Measured values from patent US20080003178A1 (BIOINCEPT, published 2008).
Primed or numbered codes have the meaning given here. No end group written: not given here. FITC′ = fluorescein label, attached via β-alanine spacer; βAla = NCCC(=O)O

Target: T1, CD58 (human, UniProt P19256 29-250)
T1 construct: whole, on cells; also called platelet marker CD58
T1 sequence: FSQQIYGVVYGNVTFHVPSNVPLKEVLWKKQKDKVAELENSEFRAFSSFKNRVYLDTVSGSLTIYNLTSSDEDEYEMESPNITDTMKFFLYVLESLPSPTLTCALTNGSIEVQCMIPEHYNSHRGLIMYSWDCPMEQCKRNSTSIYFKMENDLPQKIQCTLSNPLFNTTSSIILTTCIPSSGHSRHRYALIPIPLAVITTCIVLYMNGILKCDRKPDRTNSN
Assay: flow cytometry, FITC sPIF-1(15) on human blood cells; no binding to platelets

B1: FITC labeled sPIF-1(15) (peptide)
peptide: {FITC′-βAla}-MVRIKPGSANKPSDD
notes: also called FITC sPIF-1(15); FITC sPIF-1
binding result: no binding
